Data taken from paper PMC8373988 (2021).

Molecular target: biotinylated-AviTag-haBiP^T229A-V461F (residues 27–635), unmodified (Chinese hamster, UniProt G3I8R9 27-635, T229A | V461F, biotin on the N-terminal Avi-tag)
Assay: BLI; ATP-bound BiP

Sequence of biotinylated-AviTag-haBiP^T229A-V461F (residues 27–635), unmodified (G3I8R9 27-635 T229A/V461F): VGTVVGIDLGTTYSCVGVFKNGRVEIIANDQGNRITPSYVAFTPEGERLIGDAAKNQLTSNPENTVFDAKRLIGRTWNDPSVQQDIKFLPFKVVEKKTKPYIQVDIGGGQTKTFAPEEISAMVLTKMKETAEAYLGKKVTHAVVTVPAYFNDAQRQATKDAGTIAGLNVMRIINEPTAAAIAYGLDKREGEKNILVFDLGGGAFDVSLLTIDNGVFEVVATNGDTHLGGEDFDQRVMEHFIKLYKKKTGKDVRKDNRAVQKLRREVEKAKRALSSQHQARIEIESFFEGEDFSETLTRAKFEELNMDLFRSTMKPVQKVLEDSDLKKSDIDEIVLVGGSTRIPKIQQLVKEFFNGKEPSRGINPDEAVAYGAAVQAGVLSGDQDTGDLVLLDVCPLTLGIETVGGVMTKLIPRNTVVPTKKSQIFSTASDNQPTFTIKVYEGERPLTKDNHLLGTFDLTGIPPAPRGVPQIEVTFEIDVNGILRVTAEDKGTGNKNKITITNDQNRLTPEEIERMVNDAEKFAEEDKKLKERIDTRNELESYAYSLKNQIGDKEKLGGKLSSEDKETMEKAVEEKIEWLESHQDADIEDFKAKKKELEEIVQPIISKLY

koff: 0.176 s⁻¹
B1: isolated TPR domain of FICD (domain or fragment)
chain: LEARAALNQALEMKRQGKREKAQKLFMHALKMDPDFVDALTEFGIFSEEDKDIIQADYLYTRALTISPYH
